Measurements taken from the nanobody polyreactivity screen of Harvey et al. (2022).

Assay: yeast display, Sf9 membrane polyspecificity reagent, FACS + sequencing; frameworks hold sequencing errors
In short: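 Polyreactivity labels are assigned by the sorting gate from which each nanobody was recovered. The gates were low and high (top ~1%), set on anti-HA fluorescence for expression and streptavidin fluorescence for reagent binding. Before sorting, galactose-induced (36–48 hours) yeast display cells were stained for 1 hour at 4 °C with 10% biotinylated, detergent-solubilized Sf9 membrane reagent.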

Sequence	polyreactivity (PSR sort gate)
QVQLVESGGGLLQAGGSLRLSCAASGRIFGWYAMGWYRQAPGKERELVAAISRGGTRTNYADSVKGRFTISRDNSKNTVYLQMNSLKPEDTAVYYCAAGGSWCQNGYWGQGTQVTVSS	high polyreactivity
QVQLVESGGGLVQAGGSLRLSCAASGRIFTYNAMGWYRQAPGKERELVASINLDGDSTYYADSVKGRFTISRDNAKKTVYLQMNSLKTEETAVYYCAVPGATSYFAYDSWGQGTQVTVSS	low polyreactivity
QVQLVESGGGLVQAGGSLRLSCAASGFTIYYYAMGWYRQAPGKVRELVASITSGGSTYYADSVKGRFTISRDNAMNTVYLQMNSLKPEDTAVYYCAQTRFHSKEGDYWGQGTQVTVSS	low polyreactivity
QVQLVESGGRIFQAGGSLRLSCAASGLIFPYYVMGWYRQAPGKERELVADITWSGGRTYYADSVKGRFTISRDNAKNTVYLQMNSLKPEDTSVYYCKAETGGVYDNYYYVGEYYFWGQGTQVTVSS	low polyreactivity
QVQLVESGAGLVQAGGSLRLSCAASGRIFADYAMGWYRQAPGKERELVADIRQSGGRTYYADSVKGRFTISRDNAKNTVYLQMNSLKPEDTAVYYCATDYGSWGDYSGKYDYWGQGTQVTVSS	low polyreactivity
QVQLVESRGGLVQAGGSLRLSCAASGRTFEYNAMGWYRQAPGKERELVATIRYSGTSTYADSVKGRFTISRDNAKNTVYLQMNSLKPEDTAVYYCAKQVRYYGYKYNYWGQGTQVTVSS	high polyreactivity
QVQLVESGGGLDQAGGSLRLSCAASGIIFKYYAMGWYRQAPGKERELVAAINYSGGRTYYADSVKGRFTISRDNAKNTVYLQMNSLKPEDTAVYYCAKVPAYADRGKFDYWGQGTQVTVSS	high polyreactivity
QVQLVESGGGLVQAGGSLRLSCAASGSIFELNAMGWSRQAPGKERELVAAITSSGSSTYYADSVKGRFTISRDNAKNTVYLQMNSLKPEDTAVYYCARDAFEPYDVGEYYYWGQGTQVTVSS	low polyreactivity
QVQLVESGGGLVQAGGSLRLSCAASGFTFAFYAMGRYRQAPGKERELVAAISRRGGSTTYADSVKGRFTISRDNAKNTVYLQMNSLKPEDTAVYYCNAVSTRNPGPDYYYWGQGTQVTVSS	high polyreactivity
QVQLVESGGGLFQAGGSLRLSCAASGSTSRYPMGWYRQAQGQERELVAAITRSGGTTYYADSVKGRFTISRDNAKNTVYLQMYSLKPEDTAVYYCATSDRQVKYDYWGQGTQVTVSS	low polyreactivity
QVQLVESGGGLVQAGGSLRLSCAASGLTLGSYAMGWYRQAPGKERELVAAISRRSGRTYYADSVKGRFTISRDNAKNTVYLQMNSLKPEDTAVYYCNRGYTAQVYTEFDYWGQGTQVTVSS	low polyreactivity
QVQLVESGGGLVQAGGSLRLSCAASGLTFPQYAMGWYRQAPGKERELVAAISKTGGSTYYADSVKGRFTISRDNAKNTVYLQMNSLKPEDTAVYYCAAVESGDRGQRINYWGQGTQVTVAS	high polyreactivity
QVQLVESGGGLVQAGGSLRLSCAASGGTFFWYGMGWYRQAPGKERELVAAITSGGSTYYADSVKGRFTISRDNAKNTVYLQMNSLKPEDTAVYYCATENRFRGWYPTRSSLPYEYWGQGTQVTVSS	low polyreactivity
QVQLVESGVGLVQAGGSLRLSCAASGSTFYKYTMGWYRQAPGKESELVSAISRSGGRTYYADSVKGRFTISRDNAKNTVYLQMNSLKPEDTAVYYCAVVTPRYYGDTKYDYWGQGTQVTVSS	high polyreactivity
QVQLVESGGGLVQAGGSLRLSCAASGTFRRYPMGWYRQEPGKERELVAAITSSGGTYYADSVKGRFTISRDNAKHTVYLQMNSLKPEDTALYYCAARDYWSRYFRPGIVGWHDYWGQGTQVTVSS	high polyreactivity
QVQLVESGGGLVQAGGSLRLSCADSGFIFLGNARGWYRQAAGKERELVAASSSGGSTYADSVKGRFTISRDNAKNTVYLQMNSLKPEDTAVYYCALDPPFPAQNYHEDDYWGQGTQVTVAS	low polyreactivity
QVQLVESGGGLVQAGGSLRLSCAASGNTFPINAMGWYRQAPGKERELVATITRPGGSTYYADSVKARFTISRDNAKNTVYLQMNSLKPEDTAVYYCAAANYTYASRWYDYWGQGTQVTVSS	low polyreactivity
QVQLVESGGGLVQAGGSLRLSCAASGLILSRNVMGWYRQAPGKERELVAAINWSSGSTYYADSVKGRFTISRDNGKNTVSLQMNSLKPEDTAVYYCAATVFYDAEYDYWGQGSQVTVSS	high polyreactivity
QVQLVESGGGLVHAGGSLRLSCAASGSTYRANSMGWYRQAPGKERELVAAITRRGGSTYYADSVKGRFTISRDNAKNTVYLQMNSLKPEDTAVYYCAAASRYGEGDYWGQGTQVTVSS	high polyreactivity
QDQLVESGGGLVQAGGSLRLSCAASGRTFYFYAMGWYRQAPGKERELVAAISWTGGITYYADSVKGRFTISRDNAKNTVYLQMNSLKPEDTAVYYCAKKYYKVHKFDYWGQGTQVTVSS	low polyreactivity
QVQLVESGGGLVQAGGSLRLSCAASGSIFTSYAVMGWYRQAPGKERELVAVITGGGITTYADSVKGRFTISRDNAKNTVYLQMNSLKPEDTAVYYCATDGWYHSEYDYWGQGTQVTVSS	low polyreactivity
QVQLVESGGGLVQAGGRLRLSCAASGSIFYSNAMGWYRQAPGKEREFVAAISAGGGSTYYADSVKGRFTISRDNAKNTVYLQMNSMKPEDTAVYFCAAQPYKIIYPYDYWGQGTQVTVSS	low polyreactivity
